The results in this text go back to patent US20120134979A1, “METHODS AND COMPOSITIONS FOR THE TREATMENT OF SICKLE CELL DISEASE” (priority 2010, published 2012).

Assay [1] deals with SCD Tg mice. In words: Hypoxia/reoxygenation-induced acute sickle crisis in SCD Tg mice with PEG-ADA pretreatment. Type of assay: in vivo, mouse. Here is the method:
Adenosine Analysis. The adenosine concentration present in whole blood was measured by HPLC as previously described (Knudsen, T. B., et al. Effects of (R)-deoxycoformycin (pentostatin) on intrauterine nucleoside catabolism and embryo viability in the pregnant mouse. Teratology 45, 91-103, 1992) with modifications. In brief, 500 μl of 0.6 M cold perchloric acid was added to 500 μl blood on ice, mixed using a vertex mixer and subsequently subject to sonication for 10 seconds with output 6 (W-220F, Heat Systems-Ultrasonic, Inc.). The homogenate was centrifuged at 20,000 g for 10 min at […]. The supernatant (568 μl) was transferred to a new tube and neutralized with 40.9 μl 3 M KHCO3/3.6 N KOH. Phenol red (2 μl of 0.2 mg/ml) was added as indicator. The sample was acidified with 5.7 μl of 1.8 M ammonium dihydrogen phosphate (pH 5.1) and 13.2 μl phosphoric acid (30%). Finally, the sample was centrifuged at 20,000 g for 5 min and the supernatant was transferred to a new tube and stored at −20° C. Before HPLC assay, the sample was thawed on ice, then centrifuged at 20,000 g for 10 minutes. The supernatant was transferred to a new tube for HPLC analysis as described previously (Aldrich, et al. Adenosine deaminase-deficient mice: models for the study of lymphocyte development and adenosine signaling. Adv Exp Med. Biol. 2000; 486, 57-63; Blackburn, et al. Metabolic and immunologic consequences of limited adenosine deaminase expression in mice. The Journal of Biological Chemistry. 1996; 271(25):15203-15210). Plasma adenosine measurements were performed as with whole blood, except the sonication step was omitted. Adenosine content was normalized to volume.
Hypoxia/reoxygenation of SCD Tg mice. SCD Tg mice were subjected to two-hour hypoxic condition with 8% oxygen. After hypoxia, mice were returned to normoxic conditions for four hours Wallace, et al. NKT cells mediate pulmonary inflammation and dysfunction in murine sickle cell disease through production of IFN-gamma and CXCR3 chemokines. Blood. 2009; 114(3):667-676). At the end of the experiments, mice were sacrificed and blood collected for adenosine measurement, sickling and hemolytic analysis.
Morphological study of erythrocytes and quantification of reticulocytes by flow cytometry. Blood smears were stained using the WG16-500 ml kit (Sigma-Aldrich) for sickled cells and observed using 100× oil immersion objective of Olympus BX60 microscope. […] The percentages of sickled cells among the counted cells were calculated. Reticulocyte was labeled by Retic-COUNT Reagent (Becton Dickinson) and quantified by flow cytometry (Perumbeti, et al., A novel human gamma-globin gene vector for genetic correction of sickle cell anemia in a humanized sickle mouse model: critical determinants for successful correction. Blood. 2009; 114(6):1174-1185).
2,3-DPG analysis. 2,3-DPG concentration in RBCs was detected by a commercially available kit (Roche, Nutley, N.J., and as described in Ericson A, de Verdier C H. A modified method for the determination of 2,3-diphosphoglycerate in erythrocytes. Scandinavian journal of clinical and laboratory investigation. 1972; 29(1):84-90).
Hemolytic analysis. The hemoglobin, haptoglobin and total bilirubin in mouse plasma were quantified by ELISA kits following instructions provided by the vendor (BioAssay Systems, Hayword, Calif.).

Assay [2] has as its system SCD Tg mice. Nature of the assay: Organ weight, histology and heme content in SCD Tg mice after chronic treatment. It counts as in vivo, mouse. On the procedure: Chronic PEG-ADA therapy. SCD transgenic mice, at eight weeks of age, were divided to two groups. One group was injected with 2.5 U PEG-ADA weekly for 8 weeks. This dosing protocol was designated SCD with PEG-ADA treatment regimen (SCD+PEG-ADA). Another group was injected with normal saline for 8 weeks; it was designated as SCD without PEG-ADA treatment regimen (SCD). Wild-type mice (C57Bl/6) used as control were injected with saline or PEG-ADA as with the SCD groups.
Chronic treatment with A2BR antagonist, PSB1115. SCD transgenic mice or wild type mice (eight weeks of age) were divided to two groups, one groups was injected with 200 μg of PSB1115 (an A2B receptor antagonist: obtained from Tocris Bioscience, St. Louis, Mo.) in PBS, daily for 8 weeks. One of groups was injected with saline.
Mouse organ isolation and histological analysis. Mice were anesthetized and body weight was determined. Organs were isolated and weighed. Half of each organ was quickly frozen in liquid nitrogen and then stored at −80° C. for heme content measurements as described below. The remaining half of each organ was fixed with 4% paraformaldehyde in PBS overnight at 4° C. Fixed tissues were rinsed in PBS, dehydrated through graded ethanol washes, and embedded in paraffin. 5 μm sections were collected on slides and stained with haematoxylin and eosin (H&E). Semiquantification of histological changes was analyzed by Image-Plus, Pro software.
Heme content measurement in multiple mouse tissues. Different organs were quickly removed and frozen in liquid nitrogen as described above. Heme was extracted from organs by homogenization with 1% Triton x-100 in PBS with 1× proteinase inhibitors (Roche) and the supernatant was collected following centrifugation at 20,000 g for 10 minutes at 4° C. Heme content was quantified following the instructions of QuantiChrom Heme Assay Kit (BioAssay Systems, Hayword, Calif.).

[3] abbreviates: SCD Tg mice, 2 h hypoxia/4 h reoxygenation, PEG-ADA pretreatment.
Where [4] appears, read: SCD Tg mice, hypoxic/reoxygenation condition.

B1: PEG-ADA: polyethylene glycol-modified adenosine deaminase, a drug used to lower adenosine concentrations in ADA-deficient humans (protein, UniProt P56658 2-363, looked up)
Adenosine deaminase: AQTPAFNKPKVELHVHLDGAIKPETILYYGRKRGIALPADTPEELQNIIGMDKPLSLPEFLAKFDYYMPAIAGCREAVKRIAYEFVEMKAKDGVVYVEVRYSPHLLANSKVEPIPWNQAEGDLTPDEVVSLVNQGLQEGERDFGVKVRSILCCMRHQPSWSSEVVELCKKYREQTVVAIDLAGDETIEGSSLFPGHVKAYAEAVKSGVHRTVHAGEVGSANVVKEAVDTLKTERLGHGYHTLEDATLYNRLRQENMHFEVCPWSSYLTGAWKPDTEHPVVRFKNDQVNYSLNTDDPLIFKSTLDTDYQMTKNEMGFTEEEFKRLNINAAKSSFLPEDEKKELLDLLYKAYGMPSPASAEQCL
modifications: PEGylated
As for B1, the “2,3-DPG elevation by hypoxia/reoxygenation” value in the assay with SCD Tg mice [1] (SCD Tg mice RBCs, PEG-ADA pretreatment) is “significantly inhibited its elevation”. Further, in the assay on SCD Tg mice [1] (setting [3]), the plasma adenosine levels entry is recorded as “significantly lowered”, the plasma hemoglobin entry is given as “decreased”, the plasma total bilirubin result was “decreased” and the sickling entry is on record as “reduced”. In the assay on SCD Tg mice [1] (setting [4]), the HCT amounted to 21.25 ± 2.52 %, the Hb was found to be 4.58 ± 0.38 g/dL, the MCH is 9.12 ± 0.72 pg and the MCHC is 18.65 ± 1.82 g/dL. Besides, in the assay with SCD Tg mice [1] (setting [4]), the MCV stood at 48.93 ± 2.05 fL, the RBC was 4.94 ± 0.17 M/μl, the RDW was 29.72 ± 1.95 % and the WBC came out at 18.68 ± 3.32 k/μl. Also, in the assay with SCD Tg mice [2] (8 weeks treatment, lung, liver, spleen (PSB1115 also kidney)), the “congestion, vascular damage and necrosis in multiple tissues (histology)” value is listed as “improved”. Besides, in the assay on SCD Tg mice [2] (PEG-ADA enzyme therapy), the “heme content in lung, liver and spleen” value is listed as “significantly decreases”; the “microinfarction and cysts in renal cortex and congestion in renal medulla” value is “significantly improved”. The “ratio of spleen weight to body weight” value in the assay with SCD Tg mice [2] (chronic treatment, untreated 4.52±0.24, p<0.05, n=8) is on record as 2.48±0.36.
